Laboratory results reported in paper PMC6117947, “A role for trypanosomatid aldo-keto reductases in methylglyoxal, prostaglandin and isoprostane metabolism” (Biochemical Journal, 2018).
One block for each molecule: values may come before it.

Experiments:
[1] = target: Leishmania infantum prostaglandin F synthase 1 (LiPGFS1) (Leishmania infantum); assay: SEC; Superdex 75 10/300; LiPGFS1 kept 96 h at 4°C without a reducing agent, run without TCEP; the dimer relies on a disulfide bond
[2] = substrate: O=Cc1cccc([N+](=O)[O-])c1; assay: purified protein; assay type: biochemical, Leishmania infantum; settings: 100 µM NADPH, 25 mM HEPES, 150 mM NaCl, pH 7.33
[3] = substrate: O=Cc1ccccc1[N+](=O)[O-]; assay: purified protein; assay type: biochemical, Leishmania infantum; settings: 100 µM NADPH, 25 mM HEPES, 150 mM NaCl, pH 7.33
[4] = substrate: O=CC=O; assay: purified protein; assay type: biochemical, Leishmania infantum; settings: 100 µM NADPH, 25 mM HEPES, 150 mM NaCl, pH 7.33
[5] = substrate: O=Cc1ccc([N+](=O)[O-])cc1; assay: purified protein; assay type: biochemical, Leishmania infantum; settings: 100 µM NADPH, 25 mM HEPES, 150 mM NaCl, pH 7.33
[6] = substrate: CC(=O)C=O; assay: purified protein; assay type: biochemical, Leishmania infantum; settings: 100 µM NADPH, 25 mM HEPES, 150 mM NaCl, pH 7.33
[7] = substrate: O=CC(O)CO; assay: purified protein; assay type: biochemical, Leishmania infantum; settings: 100 µM NADPH, 25 mM HEPES, 150 mM NaCl, pH 7.33
[8] = substrate: O=CC(=O)c1ccccc1; assay: purified protein; assay type: biochemical, Leishmania infantum; settings: 100 µM NADPH, 25 mM HEPES, 150 mM NaCl, pH 7.33
[9] = substrate: O=Cc1ccccc1[N+](=O)[O-]; assay: purified protein; assay type: biochemical, Trypanosoma cruzi; settings: 100 µM NADPH, 25 mM HEPES, 150 mM NaCl, pH 7.33
[10] = substrate: O=CC=O; assay: purified protein; assay type: biochemical, Trypanosoma cruzi; settings: 100 µM NADPH, 25 mM HEPES, 150 mM NaCl, pH 7.33
[11] = substrate: O=CC(O)CO; assay: purified protein; assay type: biochemical, Trypanosoma cruzi; settings: 100 µM NADPH, 25 mM HEPES, 150 mM NaCl, pH 7.33
[12] = substrate: CC(=O)C=O; assay: purified protein; assay type: biochemical, Trypanosoma cruzi; settings: 100 µM NADPH, 25 mM HEPES, 150 mM NaCl, pH 7.33
[13] = substrate: O=CC(=O)c1ccccc1; assay: purified protein; assay type: biochemical, Trypanosoma cruzi; settings: 100 µM NADPH, 25 mM HEPES, 150 mM NaCl, pH 7.33
[14] = substrate: O=Cc1cccc([N+](=O)[O-])c1; assay: purified protein; assay type: biochemical, Trypanosoma brucei; settings: 100 µM NADPH, 25 mM HEPES, 150 mM NaCl, pH 7.33
[15] = substrate: O=Cc1ccccc1[N+](=O)[O-]; assay: purified protein; assay type: biochemical, Trypanosoma brucei; settings: 100 µM NADPH, 25 mM HEPES, 150 mM NaCl, pH 7.33
[16] = substrate: O=Cc1ccc([N+](=O)[O-])cc1; assay: purified protein; assay type: biochemical, Trypanosoma brucei; settings: 100 µM NADPH, 25 mM HEPES, 150 mM NaCl, pH 7.33
[17] = substrate: CC(=O)C=O; assay: purified protein; assay type: biochemical, Trypanosoma brucei; settings: 100 µM NADPH, 25 mM HEPES, 150 mM NaCl, pH 7.33
[18] = substrate: O=CC(=O)c1ccccc1; assay: purified protein; assay type: biochemical, Trypanosoma brucei; settings: 100 µM NADPH, 25 mM HEPES, 150 mM NaCl, pH 7.33

- percent of the protein eluting as dimer [1]: 25%
- stoichiometry N [1]: 2
Molecule: Leishmania infantum prostaglandin F synthase 1 (LiPGFS1) (enzyme)

B1: LiPGFS2 (Leishmania infantum) (protein)
chain: MADVGKAMVTLSNGVQMPQLGLGVWQSPAGEVTANAVKWALCAGYRHIDTAAIYKNEESVGAGLRASGVPREDVFITTKLWNTEQGYESTLAAFEESRQKLGVDYIDLYLIHWPRGKDIVSKEGKKYLDSWRAFEQLYKDKKVRAIGVSNFHIHHLEDVLAMCTVTPMVNQVELHPLNNQAELRAFCDAKQIKVEAWSPLGQGKLLSNPILAAIGAKYNKTAAQVILRWNIQKNLITIPKSVHKERIEENADVFNFELGAEDVMRIDALNTNSRYGPDPDEAQF
notes: full-length ORF from genomic DNA, pET15b-TEV, E. coli, His6 tag cut with TEV protease; monomer
- Km [2]: 2 ± 0.3 µM
- kcat [2]: 1.04 ± 0.02 s⁻¹
- kcat/Km [2]: 520000 M⁻¹ s⁻¹
- Km [3]: 2.4 ± 0.3 µM
- kcat [3]: 1.04 ± 0.02 s⁻¹
- kcat/Km [3]: 433000 M⁻¹ s⁻¹
- Km [4]: 560 ± 50 µM
- kcat [4]: 1.05 ± 0.02 s⁻¹
- kcat/Km [4]: 1880 M⁻¹ s⁻¹
- Km [5]: 4 ± 0.6 µM
- kcat [5]: 1.13 ± 0.05 s⁻¹
- kcat/Km [5]: 283000 M⁻¹ s⁻¹
- kcat [6]: 1.13 ± 0.01 s⁻¹
- kcat/Km [6]: 56500 M⁻¹ s⁻¹

B2: LiPGFS1 (Leishmania infantum) (protein)
chain: MTGKCTHVTLGNGVQVPQLGIGTWEAKNGNEVVQNIKWAINAGYRHIDTAHYYKNEKGVGQGISECGVPRSDIFVTTKLWNYDHGYESALAAFEQSRQALGVEYVDLYLIHWPGPNRSYIETWRAFEKLYEMKKVRAIGVSNFEPHHLDDLLANCTVPPMVNQVEMHPHFQQKALRAYCAEKNIAVTAWRPLGKGALLTEPQLVELAEKHKRSAAQVIIRWLIQLGVIAIPKSSHEERIKQNFDVFDFELSPEDMRRLESMDKNSRIGPSPETFFPTECK
notes: synthetic full-length ORF (GeneART), pET15b-TEV, E. coli, His6 tag cut with TEV protease; mainly monomer
- Km [3]: 320 ± 20 µM
- kcat [3]: 8.5 ± 0.21 s⁻¹
- kcat/Km [3]: 26600 M⁻¹ s⁻¹
- Km [5]: 430 ± 26 µM
- kcat [5]: 0.48 ± 0.01 s⁻¹
- kcat/Km [5]: 1110 M⁻¹ s⁻¹
- Km [7]: 2870 ± 80 µM
- kcat [7]: 8.72 ± 0.11 s⁻¹
- kcat/Km [7]: 3040 M⁻¹ s⁻¹
- Km [6]: 800 ± 70 µM
- kcat [6]: 8.72 ± 0.17 s⁻¹
- kcat/Km [6]: 10900 M⁻¹ s⁻¹
- Km [8]: 140 ± 8 µM
- kcat [8]: 10.4 ± 0.22 s⁻¹
- kcat/Km [8]: 74300 M⁻¹ s⁻¹

B3: TcAKR (Trypanosoma cruzi) (protein)
chain: MNCNYNCVTLHNSAQMPQLGLGVWRAQDGAETANAVRWAIEAGYRHIDTACIYNNEKGVGQGIRESGVPREEVWVTTKVWNSDQGYEKTLAAFERSRELLGLEYIDLYLIHWPGKKKFVDTWKALEKLYEEKKVRAIGVSNFEPHHLTELFKSCKIRPMVNQVELHPLFQQRALREFCKQHNIAVTAWSPLGSGDEAGILKNHVLGEIAKKHNKSPAQVVIRWDIQHGIVTIPKSTNKGRIQENFNVWDFKLTEEEMRQIDELNEDKRIGADPDNFFPGGEE
notes: full-length ORF, pET15b-TEV, E. coli Rosetta (DE3) pLysS, His6 tag cut with TEV protease; monomer
- Km [9]: 710 ± 80 µM
- kcat [9]: 2.25 ± 0.11 s⁻¹
- kcat/Km [9]: 3170 M⁻¹ s⁻¹
- Km [10]: 8300 ± 310 µM
- kcat [10]: 4.56 ± 0.05 s⁻¹
- kcat/Km [10]: 549 M⁻¹ s⁻¹
- Km [11]: 1500 ± 170 µM
- kcat [11]: 4.94 ± 0.11 s⁻¹
- kcat/Km [11]: 3290 M⁻¹ s⁻¹
- kcat [12]: 4.69 ± 0.03 s⁻¹
- kcat/Km [12]: 19500 M⁻¹ s⁻¹
- Km [13]: 50 ± 3 µM
- kcat [13]: 4.46 ± 0.08 s⁻¹
- kcat/Km [13]: 89200 M⁻¹ s⁻¹

B4: TbPGFS (Trypanosoma brucei brucei) (protein)
chain: MALTQSLKLSNGVMMPVLGFGMWKLQDGNEAETATMWAIKSGYRHIDTAAIYKNEESAGRAIASCGVPREELFVTTKLWNSDQGYESTLSAFEKSIKKLGLEYVDLYLIHWPGKDKFIDTWKAFEKLYADKKVRAIGVSNFHEHHIEELLKHCKVAPMVNQIELHPLLNQKALCEYCKSKNIAVTAWSPLGQGHLVEDARLKAIGGKYGKTAAQVMLRWEIQAGVITIPKSGNEARIKENGNIFDFELTAEDIQVIDGMNAGHRYGPDPEVFMNDF
notes: as for B1
- Km [14]: 2 ± 0.1 µM
- kcat [14]: 0.34 ± 0.005 s⁻¹
- kcat/Km [14]: 170000 M⁻¹ s⁻¹
- Km [15]: 3 ± 0.3 µM
- kcat [15]: 0.41 ± 0.002 s⁻¹
- kcat/Km [15]: 140000 M⁻¹ s⁻¹
- Km [16]: 4.3 ± 0.2 µM
- kcat [16]: 0.43 ± 0.008 s⁻¹
- kcat/Km [16]: 100000 M⁻¹ s⁻¹
- kcat [17]: 0.38 ± 0.007 s⁻¹
- kcat/Km [17]: 38000 M⁻¹ s⁻¹
- Km [18]: 5 ± 0.8 µM
- kcat [18]: 0.34 ± 0.014 s⁻¹
- kcat/Km [18]: 68000 M⁻¹ s⁻¹
